Patent US6794178

Target: microtubules

B1: Bacterially expressed and purified KinI-3 protein (protein)
chain: DCDIPIIQRISHVSGYNYGIPHSCIRQNTSEKQNPWTEMEKIRVCVRKRPLGMREVRRGEINIITVEDKETLLVHEKKEAVDLTQYILQHVFYFDEVFGEACTNQDVYMKTTHPLIQHIFNGGNATCFAYGQTGAGKTYTMIGTHENPGLYALAAKDIFRQLEVSQPRKHLFVWISFYEIYCGQLYDLLNRRKRLFAREDSKHMVQIVGLQELQVDSVELLLEVILKGSKERSTGATGVNADSSRSHAVIQIQIKDSAKRTFGRISFIDLAGSERAADARDSDRQTKMEGAEINQSLLALKECIRALDQEHTHTPFRQSKLTQVLKDSFIGNAKTCMIANISPSHVATEHTLNTLRYADRVKEL
**Q.** For B1, which “microtubule depolymerization (tubulin in supernatant after centrifugation, SDS-PAGE), AL + ATP/MT” value is on record?
**A.** Its value is “Track 3 shows an increase in tubulin in the supernatant that indicates depolymerization in the presence of ATP”.

**Q.** And the “microtubule depolymerization (tubulin in supernatant), AL + MT + ADP” value?
**A.** Its value is “No depolymerization was observed ... in the presence of ADP (track 6)”.

**Q.** What about the “microtubule depolymerization (tubulin in supernatant), AL + MT/AMPPNP” value of the same protein?
**A.** The value was “No depolymerization was observed ... in the presence of AMP-PNP (track 5)”.

**Q.** And the “microtubule depolymerization (tubulin in supernatant), AL treated by Apyrase + MT” value?
**A.** The value was “No depolymerization was observed in the absence of ATP (track 4)”.
